Experimental data reported in patent US20250032632A1 (published 2025).
Changes are numbered by the printed parent chain. Values belong to the binder of their own block, whether it stands above or below them.

Legend:
rat cMET (ELISA antigen) [1] = biological target: T1, rat cMET (ELISA antigen) (rat, UniProt P97523 25-935, limits assumed); assay: ELISA on rat cMET, relative to parental P3D12
T1 construct: also called rMET

[2] = biological target: T2, human cMET (ELISA antigen) (human, UniProt P08581 25-932, limits assumed); assay: ELISA on human cMET, relative to parental P3D12
T2 construct: also called hMET
T2 sequence (P08581 25-932 limits assumed): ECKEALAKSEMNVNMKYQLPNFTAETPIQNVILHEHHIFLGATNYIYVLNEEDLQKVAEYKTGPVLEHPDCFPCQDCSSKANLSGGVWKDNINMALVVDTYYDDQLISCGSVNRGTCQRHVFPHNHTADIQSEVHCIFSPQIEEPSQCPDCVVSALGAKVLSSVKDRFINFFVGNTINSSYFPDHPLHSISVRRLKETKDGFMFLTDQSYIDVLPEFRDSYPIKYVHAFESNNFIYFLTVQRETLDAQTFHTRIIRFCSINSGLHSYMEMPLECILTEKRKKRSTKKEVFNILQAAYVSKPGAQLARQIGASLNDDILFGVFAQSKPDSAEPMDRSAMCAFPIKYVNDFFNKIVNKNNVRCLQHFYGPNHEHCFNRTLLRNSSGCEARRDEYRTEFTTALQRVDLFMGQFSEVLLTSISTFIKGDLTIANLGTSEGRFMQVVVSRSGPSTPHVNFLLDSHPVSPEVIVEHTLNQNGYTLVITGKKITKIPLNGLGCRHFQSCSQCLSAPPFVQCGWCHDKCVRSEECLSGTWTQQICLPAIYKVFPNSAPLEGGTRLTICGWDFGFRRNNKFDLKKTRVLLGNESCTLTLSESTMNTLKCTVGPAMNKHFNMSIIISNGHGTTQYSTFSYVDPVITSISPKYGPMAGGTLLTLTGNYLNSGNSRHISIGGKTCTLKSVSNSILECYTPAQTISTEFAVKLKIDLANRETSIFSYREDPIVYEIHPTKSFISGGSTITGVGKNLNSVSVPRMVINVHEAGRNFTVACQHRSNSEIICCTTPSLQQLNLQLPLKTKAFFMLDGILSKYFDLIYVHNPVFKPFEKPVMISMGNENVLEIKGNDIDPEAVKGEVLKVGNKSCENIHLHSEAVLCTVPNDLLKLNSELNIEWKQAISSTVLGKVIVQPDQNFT

[3] = biological target: T3, human cMET-Fc fusion protein (extracellular domain of human cMET fused to human Fc) (human, UniProt P08581 25-932); assay: SPR, hMET-Fc
T3 construct: Mature cMET is cleaved into alpha and beta subunits; also called hMET-Fc; hMet-Fc
T3 sequence (P08581 25-932): as the sequence (P08581 25-932 limits assumed) above

rat cMET-Fc = biological target: T4, rat cMET-Fc (rat, UniProt P97523 25-935); assay: SPR, rMET-Fc
T4 construct: Construct named only as rMET-Fc; also called rMET-Fc; not shown: Fc part
T4 sequence (P97523 25-935 limits assumed): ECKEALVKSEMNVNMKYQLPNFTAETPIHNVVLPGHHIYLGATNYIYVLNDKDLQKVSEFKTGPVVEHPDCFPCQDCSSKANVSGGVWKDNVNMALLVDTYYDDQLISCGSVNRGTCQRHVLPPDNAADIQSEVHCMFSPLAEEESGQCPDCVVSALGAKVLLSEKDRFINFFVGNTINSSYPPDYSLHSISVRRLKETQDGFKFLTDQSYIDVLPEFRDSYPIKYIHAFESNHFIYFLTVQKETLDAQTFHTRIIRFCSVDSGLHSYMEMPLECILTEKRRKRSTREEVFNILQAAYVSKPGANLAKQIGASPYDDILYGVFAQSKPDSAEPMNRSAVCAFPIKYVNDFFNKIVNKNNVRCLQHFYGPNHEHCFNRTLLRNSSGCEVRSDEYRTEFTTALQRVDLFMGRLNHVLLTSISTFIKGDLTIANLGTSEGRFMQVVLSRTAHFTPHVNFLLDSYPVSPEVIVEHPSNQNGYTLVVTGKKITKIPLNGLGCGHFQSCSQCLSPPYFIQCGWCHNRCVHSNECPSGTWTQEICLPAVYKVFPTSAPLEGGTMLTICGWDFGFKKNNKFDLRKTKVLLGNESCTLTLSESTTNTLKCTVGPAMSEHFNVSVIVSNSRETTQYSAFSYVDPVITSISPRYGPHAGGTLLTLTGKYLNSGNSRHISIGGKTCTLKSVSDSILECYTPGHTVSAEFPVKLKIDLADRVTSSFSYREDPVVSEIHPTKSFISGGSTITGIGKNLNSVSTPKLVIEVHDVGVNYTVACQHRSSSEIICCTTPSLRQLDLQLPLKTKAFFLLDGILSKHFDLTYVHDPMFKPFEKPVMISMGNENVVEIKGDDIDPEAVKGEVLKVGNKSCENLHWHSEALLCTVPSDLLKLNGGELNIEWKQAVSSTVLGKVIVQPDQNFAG

[4] = biological target: T3, human cMET-Fc fusion protein …; assay: SPR with hMet-Fc
rat cMET (ELISA antigen) [5] = biological target: T1, rat cMET (ELISA antigen); assay: ELISA, cross-reactivity, rat cMET
[6] = biological target: mouse cMET (ELISA antigen) (mouse, UniProt P16056 25-931, limits assumed); assay: ELISA, cross-reactivity, mouse cMET
Sequence of mouse cMET (ELISA antigen) (P16056 25-931 limits assumed): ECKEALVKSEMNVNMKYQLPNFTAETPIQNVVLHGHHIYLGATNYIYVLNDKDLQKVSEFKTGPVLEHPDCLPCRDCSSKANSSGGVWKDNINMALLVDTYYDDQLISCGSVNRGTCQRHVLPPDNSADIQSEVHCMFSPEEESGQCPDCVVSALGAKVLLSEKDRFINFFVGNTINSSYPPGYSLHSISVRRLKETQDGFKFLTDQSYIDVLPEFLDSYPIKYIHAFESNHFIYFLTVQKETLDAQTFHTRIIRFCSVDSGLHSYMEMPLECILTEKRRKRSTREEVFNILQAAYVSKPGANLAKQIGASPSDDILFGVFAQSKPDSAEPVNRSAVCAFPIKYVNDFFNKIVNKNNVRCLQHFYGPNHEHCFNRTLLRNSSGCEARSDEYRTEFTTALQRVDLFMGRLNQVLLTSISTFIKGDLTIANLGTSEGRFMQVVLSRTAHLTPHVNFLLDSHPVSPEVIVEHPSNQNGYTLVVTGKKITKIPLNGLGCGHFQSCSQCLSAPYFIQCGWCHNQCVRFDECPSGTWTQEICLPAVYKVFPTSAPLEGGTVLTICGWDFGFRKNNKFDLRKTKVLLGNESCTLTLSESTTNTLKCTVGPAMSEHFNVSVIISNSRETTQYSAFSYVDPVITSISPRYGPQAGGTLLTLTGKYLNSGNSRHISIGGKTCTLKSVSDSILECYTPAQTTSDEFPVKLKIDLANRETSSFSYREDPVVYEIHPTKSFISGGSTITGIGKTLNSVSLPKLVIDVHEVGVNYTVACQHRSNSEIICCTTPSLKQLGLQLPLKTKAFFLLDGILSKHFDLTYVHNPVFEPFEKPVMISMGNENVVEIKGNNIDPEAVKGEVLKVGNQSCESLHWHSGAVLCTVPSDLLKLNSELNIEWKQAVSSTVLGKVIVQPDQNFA

T1 sequence (P97523 25-935 limits assumed): as the sequence (P97523 25-935 limits assumed) above

- ELISA rMET vs parental (rat cMET (ELISA antigen) [1]): 3.8 fold vs parental
- ELISA hMET vs parental [2]: 1.8 fold vs parental
B1: G2fka (humanized P3D12, VH-fra + VL-abb/sdr) (antibody, V domains shown)
VH: QVQLQQSGAEVKKPGASVKVSCKASGYTFTSYWMHWVKQRPGQGLDWIGYIKPSTDNTEYNQKFKDRVTLTADKSTSTAYMQLSNLISEDTAVYYCARSYGNYPLMDYWGQGTSVTVSS
VL: QIVLTQSPATLSLSPGERATLSCRASQSVTSNYLYWYQQKPGSSPRLLIYSTSNLASGVPARFSGSGSGTDYTLTISRLEPEDFASYFCHQWSSYPPTFGSGTKLEIKR
notes: Humanized and isotype switched version of P3D12

- ELISA rMET vs parental (rat cMET (ELISA antigen) [1]): 1.6 fold vs parental
- ELISA hMET vs parental [2]: 1.6 fold vs parental
B2: G2vkv (humanized P3D12, VH-ven + VL-ven) (antibody, V domains shown)
VH: B1 VH with Q5V, K12A, V20M, R40A, R67K, V68A, N85S, I87R, S114T
VL: B1 VL with L11M, L13A, A19V, R24S, Q27S, L48W, D71S, L79M, F84A
notes: as for B1

- ELISA rMET vs parental (rat cMET (ELISA antigen) [1]): 2.3 fold vs parental
- ELISA hMET vs parental [2]: 1.7 fold vs parental
B3: G2fkc (humanized P3D12, VH-fra + VL-cdr) (antibody, V domains shown)
VH: B1 VH
VL: B1 VL with R24S, Q27S, D71S
notes: as for B1

- ELISA rMET vs parental (rat cMET (ELISA antigen) [1]): 1.3 fold vs parental
- ELISA hMET vs parental [2]: 1.6 fold vs parental
B4: G2akv (humanized P3D12, VH-abb/sdr + VL-ven) (antibody, V domains shown)
VH: B1 VH with Q5V, R40A, I48M, N61A, K65Q, D66G, Q82E, N85S, I87R, S114T
VL: B1 VL with L11M, L13A, A19V, R24S, Q27S, L48W, D71S, L79M, F84A
notes: as for B1

- Kd [3]: 0.6 nM
- Kd (rat cMET-Fc): 23 nM
- ELISA rMET vs parental (rat cMET (ELISA antigen) [1]): 0.5 fold vs parental
- ELISA hMET vs parental [2]: 1 fold vs parental
B5: G2akf (humanized P3D12, VH-abb/sdr + VL-fra) (antibody, V domains shown)
VH: B1 VH with Q5V, R40A, I48M, N61A, K65Q, D66G, Q82E, N85S, I87R, S114T
VL: B1 VL with T10I, R24S, Q27S, R46K, D71S, R78S, P81A, F84A
notes: as for B1

- ELISA rMET vs parental (rat cMET (ELISA antigen) [1]): 1 fold vs parental
- ELISA hMET vs parental [2]: 1.1 fold vs parental
B6: G2ckv (humanized P3D12, VH-cdr + VL-ven) (antibody, V domains shown)
VH: B1 VH with Q5V, R40A, R67K, V68A, Q82E, N85S, I87R, S114T
VL: B1 VL with L11M, L13A, A19V, R24S, Q27S, L48W, D71S, L79M, F84A
notes: as for B1

- Kd [3]: 0.4 nM
- Kd (rat cMET-Fc): 29 nM
- ELISA rMET vs parental (rat cMET (ELISA antigen) [1]): 2.7 fold vs parental
- ELISA hMET vs parental [2]: 1.3 fold vs parental
B7: G2cka (humanized P3D12, VH-cdr + VL-abb/sdr) (antibody, V domains shown)
VH: B1 VH with Q5V, R40A, R67K, V68A, Q82E, N85S, I87R, S114T
VL: B1 VL
notes: as for B1

- Kd [3]: 0.9 nM
- Kd (rat cMET-Fc): 26 nM
- ELISA rMET vs parental (rat cMET (ELISA antigen) [1]): 1.1 fold vs parental
- ELISA hMET vs parental [2]: 0.9 fold vs parental
B8: G2aka (humanized P3D12, VH-abb/sdr + VL-abb/sdr) (antibody, V domains shown)
VH: B1 VH with Q5V, R40A, I48M, N61A, K65Q, D66G, Q82E, N85S, I87R, S114T
VL: B1 VL
notes: as for B1

- Kd [3]: 0.7 nM
- Kd (rat cMET-Fc): 38 nM
- ELISA rMET vs parental (rat cMET (ELISA antigen) [1]): 0.7 fold vs parental
- ELISA hMET vs parental [2]: 1.3 fold vs parental
B9: G2akc (humanized P3D12, VH-abb/sdr + VL-cdr) (antibody, V domains shown)
VH: B1 VH with Q5V, R40A, I48M, N61A, K65Q, D66G, Q82E, N85S, I87R, S114T
VL: B1 VL with R24S, Q27S, D71S
notes: as for B1

- ELISA rMET vs parental (rat cMET (ELISA antigen) [1]): 1.9 fold vs parental
- ELISA hMET vs parental [2]: 1.1 fold vs parental
B10: G2vkc (humanized P3D12, VH-ven + VL-cdr) (antibody, V domains shown)
VH: B1 VH with Q5V, K12A, V20M, R40A, R67K, V68A, N85S, I87R, S114T
VL: B1 VL with R24S, Q27S, D71S
notes: as for B1

- Kd [3]: 0.3 nM
- Kd (rat cMET-Fc): 8 nM
- ELISA rMET vs parental (rat cMET (ELISA antigen) [1]): 1 fold vs parental
- ELISA hMET vs parental [2]: 1.1 fold vs parental
B11: G2vkf (humanized P3D12, VH-ven + VL-fra) (antibody, V domains shown)
VH: B1 VH with Q5V, K12A, V20M, R40A, R67K, V68A, N85S, I87R, S114T
VL: B1 VL with T10I, R24S, Q27S, R46K, D71S, R78S, P81A, F84A
notes: as for B1

- Kd [4]: 0.7 nM
B12: ABF46 (antibody, V domains shown)
VH: EVKLVESGGGLVQPGGSLRLSCATSGFTFTDYYMSWVRQPPGKALEWLGFIRNKANGYTTEYSASVKGRFTISRDNSQSILYLQMDTLRAEDSATYYCARDNWFAYWGQGTLVTVSA
VL: DILMTQSPSSLTVSAGEKVTMSCKSSQSLLASGNQNNYLAWHQQKPGRSPKMLIIWASTRVSGVPDRFIGSGSGTDFTLTINSVQAEDLAVYYCQQSYSAPLTFGAGTKLELK

- binding result (rat cMET (ELISA antigen) [5]): no binding
- binding result [6]: no binding
B13: F5P5B9 (antibody, V domains shown)
VH: QVQLKESGPGLVAPSQSLSITCTVSGFSLTNYGVNWVRQPPGKGLEWLGLIWGGGDTDYNSALKSRLSISKDNSKSQVFLKMETNSLQTDDTARYYCARDYYGFDYWGQGTTLTVSS
VL: DVLMTQTPLSLPVSLGDQASISCRSSQTIVHGTGNTYLEWYLQKPGQSPKLLIYKVSNRFSGVPDRFSGSGSGTDFTLKISRVEAEDLGVYYCFQGSHVPYTFGGGTKLEIKR
notes: Mouse monoclonal antibody
